# From publication PMC9399999 (Nature Communications, 2022)
# B1: S304 antibody (IgG1) (antibody, V domains shown)
# VH: EVQLVESGGGLVQPGGSLRLSCAASGFTFSSYDMHWVRQTTGKGLEWVSTIGTAGDTYYPDSVKGRFTISREDAKNSLYLQMNSLRAGDTAVYYCARGDSSGYYYYFDYWGQGTLLTVSS
# VL: DIQMTQSPSSLSAAVGDRVTITCRASQSIGSYLNWYQQKPGKAPKLLIYAASSLQSGVPSRFSGSGSGTDFTLTISSLQPEDFAIYYCQQSYVSPTYTFGPGTKVDIK
# notes: IgG1
# Molecular target: prototypic SARS-CoV-2 RBD (residues 319-541) (SARS-CoV-2, prototype (GISAID …, UniProt P0DTC2))
# Test: SPR
# Settings: both partners purified
binder,measurement,value
B1,Kd,5.61 nM
